This note sets out measurements from the RNAGym collection of RNA variant scans (doi:10.1021/acssynbio.7b00057).

B1: Pistol ribozyme (parent)
chain: GGGUCGUUGUUCCAUAAUCGCGUGGAUAUGGCACGCAAGUUUCUACCGGGCACCGUAAAUGUCCGACUGGAGCCGUUCGGGCGGCUAUAAACAGACCUCAGGCCCGAAGCGUGGCGGCACCUGCCGCCGGUGGUAAAAAAGAUCGGAAGAGCACACGUCU

In this series the parent is B1. The series can be described thus: aptazyme ON/OFF ratio, guanine; higher = stronger switching; co-transcriptional cleavage with and without guanine.
With U7C U8C G9A U10C C12A C13U, the “aptazyme ON/OFF ratio” value was found to be 1.21.
Then U7C U8C G9A U10C C12A C13G, with 1.2; and U7C U8C G9A U10C C12A C13A, with 1.52; and U7C U8C G9A U10A U11C C12U C13U, with 1.13.
On to U7C U8C G9A U10A U11C C12U C13G, for which the “aptazyme ON/OFF ratio” value stood at 1.2.
The figure for U7C U8C G9A U10A U11C C12U C13A is 1.15.
Then U7C U8C C12G C13A, with 1.12; and U7C U8C C12G C13G, with 1.14; and U7C U8C C12G C13U, with 1.15.
The figure for U7C U8C G9A U11G C12G C13G is 1.11.
For U7C U8C G9A U11G C12G C13U, the “aptazyme ON/OFF ratio” value was determined as 1.11.
The figure for U7C U8C G9A U11G C12G C13A is 1.23.
Then U7C U8C G9A U10G U11G C13G, with 1.23; and U7C U8C G9A U10G U11G C13U, with 1.29.
Regarding U7C U8C G9A U10G U11G C13A, the “aptazyme ON/OFF ratio” value is 1.18.
Then U7C U8C G9A U10A U11G C12G, with 1.25; and U7C U8C G9A U10A U11G C12U, with 1.35; and U7C U8C G9A U10A U11G C12A, with 1.08.
For the variant U7C U8C G9A U10C U11G C12G C13A, the “aptazyme ON/OFF ratio” value amounted to 1.23.
Take U7C U8C G9A U10C U11G C12G C13G: the “aptazyme ON/OFF ratio” value turned out to be 1.41.
Then U7C U8C G9A U10C U11G C12G C13U, with 1.17; and U7C U8C G9A U11A C12G, with 1.21.
Then U7C U8C G9A U11A C12A, with 1.21.
U7C U8C G9A U11A C12U: the “aptazyme ON/OFF ratio” value came out at 1.06.
The figure for U7C U8C C12U C13A is 1.41.
The figure for U7C U8C C12U C13U is 1.29; for U7C U8C C12U C13G it is 1.2.
On to U7C U8C G9A U10A U11G C12G C13A, for which the “aptazyme ON/OFF ratio” value amounted to 1.13.
The figure for U7C U8C G9A U10A U11G C12G C13G is 1.15; for U7C U8C G9A U10A U11G C12G C13U it is 1.14; for U7C U8C G9A U10A U11A C12U C13G it is 1.13.
For the variant U7C U8C G9A U10A U11A C12U C13U, the “aptazyme ON/OFF ratio” value amounted to 1.11.
On to U7C U8C G9A U10A U11A C12U C13A, for which the “aptazyme ON/OFF ratio” value stood at 1.27.
Then U7C U8C G9A U10C U11C C13A, with 1.08.
The figure for U7C U8C G9A U10C U11C C13U is 1.19; for U7C U8C G9A U10C U11C C13G it is 1.21; for U7C U8C G9A U10A C12G C13U it is 1.16.
Then U7C U8C G9A U10A C12G C13G, with 1.27; and U7C U8C G9A U10A C12G C13A, with 1.11.
Consider U7C U8C G9A U10C U11G C12A C13U, for which the “aptazyme ON/OFF ratio” value stood at 1.52.
The figure for U7C U8C G9A U10C U11G C12A C13G is 1.16; for U7C U8C G9A U10C U11G C12A C13A it is 1.28.
Then U7C U8C G9A U10G C12U C13U, with 1.42; and U7C U8C G9A U10G C12U C13G, with 1.16.
The figure for U7C U8C G9A U10G C12U C13A is 1.15.
Regarding U7C U8C G9A U11G, the “aptazyme ON/OFF ratio” value was determined as 1.62.
The figure for U7C U8C G9A U11C is 1.82; for U7C U8C G9A U11A it is 1.16; for U7C U8C G9A U10G C12G C13A it is 1.2.
With U7C U8C G9A U10G C12G C13U, the “aptazyme ON/OFF ratio” value turned out to be 1.16.
The figure for U7C U8C G9A U10G C12G C13G is 1.16; for U7C U8C G9C U10A C12G C13U it is 1.1.
Then U7C U8C G9C U10A C12G C13A, with 1.11; and U7C U8C G9C U10A C12G C13G, with 1.17; and U7C U8C G9A C12A C13U, with 1.42.
The figure for U7C U8C G9A C12A C13A is 1.24.
With U7C U8C G9A C12A C13G, the “aptazyme ON/OFF ratio” value worked out at 1.05.
The figure for U7C U8C G9C U10A C12A is 1.11; for U7C U8C G9C U10A C12G it is 1.16.
The figure for U7C U8C G9C U10A C12U is 1.26; for U7C U8C G9C U10A U11C C12G it is 1.21; for U7C U8C G9C U10A U11C C12A it is 1.21.
The figure for U7C U8C G9A U10C U11G C12G is 1.36; for U7C U8C G9A U10C U11G C12U it is 1.21.
On to U7C U8C G9A U10C U11G C12A, for which the “aptazyme ON/OFF ratio” value came to 1.26.
With U7C U8C G9A C12G C13U, the “aptazyme ON/OFF ratio” value was 1.24.
Consider U7C U8C G9A C12G C13G, for which the “aptazyme ON/OFF ratio” value stood at 1.28.
Then U7C U8C G9A C12G C13A, with 1.25; and U7C U8C G9A U10G U11G C12U, with 1.25.
Then U7C U8C G9A U10G U11G C12A, with 1.23; and U7C U8C G9A U10G U11G C12G, with 1.16.
Then U7C U8C G9A U10G U11G C12U C13G, with 1.11; and U7C U8C G9A U10G U11G C12U C13U, with 1.14; and U7C U8C G9A U10G U11G C12U C13A, with 1.1.
Take U7C U8C G9A U10C C12U C13U: the “aptazyme ON/OFF ratio” value was 1.32.
Then U7C U8C G9A U10C C12U C13A, with 1.22; and U7C U8C G9A U10C C12U C13G, with 1.26; and U7C U8C G9A U10G U11G C12A C13A, with 1.2.
The figure for U7C U8C G9A U10G U11G C12A C13G is 1.1; for U7C U8C G9A U10G U11G C12A C13U it is 1.15.
Take U7C U8C G9A U10A C12U C13U: the “aptazyme ON/OFF ratio” value worked out at 1.13.
As to U7C U8C G9A U10A C12U C13A, the “aptazyme ON/OFF ratio” value was 1.14.
The figure for U7C U8C G9A U10A C12U C13G is 1.19.
